Laboratory results from the Human Domainome abundance scans (Beltran et al. 2025).
± gives the uncertainty stated by the source.

B1: POU domain, class 2, transcription factor 3, residues 186 to 260; numbered along this chain, Q9UKI9 (parent)
chain: SDLEELEKFAKTFKQRRIKLGFTQGDVGLAMGKLYGNDFSQTTISRFEALNLSFKNMCKLKPLLEKWLNDAESSP
B2: Cold shock protein CspB, residues 1 to 66; numbered along this chain, P41016 (parent)
chain: MQRGKVKWFNNEKGYGFIEVEGGSDVFVHFTAIQGEGFKTLEEGQEVSFEIVQGNRGPQAANVVKL

Variants of: B1
Assay: abundance fitness (aPCA) (normalised: wild type 0, dead -1); higher = more abundant; growth selection in yeast, the domain comes from the species named
Conditions: Homo sapiens

Abundance fitness of substitutions, site by site:
L68: T -0.317 ± 0.068 | V -0.052 ± 0.037 | W -0.43 ± 0.049 | Y -0.298 ± 0.074
N69: A -0.029 ± 0.045 | D 0.026 ± 0.059 | E 0.002 ± 0.04 | F 0.061 ± 0.068 | G 0.042 ± 0.033 | H 0.083 ± 0.13 | I 0.018 ± 0.059 | K -0.125 ± 0.053 | L -0.068 ± 0.037 | M -0.008 ± 0.047 | P -0.326 ± 0.067 | Q 0.033 ± 0.052 | S 0.006 ± 0.04 | T 0.033 ± 0.047 | V -0.028 ± 0.036 | W 0.014 ± 0.05 | Y -0.081 ± 0.099
D70: A -0.059 ± 0.043 | C -0.201 ± 0.072 | E 0.027 ± 0.043 | F -0.059 ± 0.11 | G -0.006 ± 0.031 | H -0.131 ± 0.15 | I -0.02 ± 0.062 | K -0.046 ± 0.058 | L -0.09 ± 0.04 | M -0.103 ± 0.058 | N -0.066 ± 0.12 | P -0.405 ± 0.064 | Q 0.003 ± 0.054 | R -0.049 ± 0.031 | S -0.063 ± 0.038 | T 0.082 ± 0.064 | V -0.096 ± 0.036 | Y -0.021 ± 0.062
A71: C -0.169 ± 0.073 | D -0.322 ± 0.063 | E -0.01 ± 0.042 | G -0.156 ± 0.033 | H 0.047 ± 0.066 | I -0.074 ± 0.16 | K 0.022 ± 0.054 | L 0.017 ± 0.035 | M -0.017 ± 0.052 | N 0.093 ± 0.13 | P -0.067 ± 0.067 | Q 0.036 ± 0.054 | R -0.025 ± 0.03 | S -0.059 ± 0.042 | T -0.005 ± 0.06 | V 0.01 ± 0.038 | W -0.076 ± 0.039 | Y -0.271 ± 0.14
E72: A -0.033 ± 0.045 | C -0.071 ± 0.049 | D -0.037 ± 0.058 | F -0.24 ± 0.065 | G -0.089 ± 0.031 | I -0.213 ± 0.11 | K -0.133 ± 0.049 | L -0.173 ± 0.036 | N -0.002 ± 0.06 | P -0.269 ± 0.058 | Q -0.026 ± 0.055 | R -0.122 ± 0.032 | S -0.084 ± 0.042 | T -0.078 ± 0.055 | V -0.043 ± 0.04 | W -0.179 ± 0.041 | Y -0.186 ± 0.1
S73: A -0.012 ± 0.044 | C -0.087 ± 0.057 | D -0.003 ± 0.067 | E -0.04 ± 0.043 | F -0.077 ± 0.059 | G -0.023 ± 0.03 | H -0.017 ± 0.066 | K -0.06 ± 0.058 | L -0.078 ± 0.039 | M -0.088 ± 0.047 | N 0.003 ± 0.061 | P -0.077 ± 0.065 | Q -0.059 ± 0.047 | R -0.113 ± 0.031 | T -0.049 ± 0.051 | V -0.038 ± 0.039 | W -0.173 ± 0.038 | Y -0.121 ± 0.078
S74: C -0.009 ± 0.06 | D -0.065 ± 0.075 | E -0.172 ± 0.07 | F -0.08 ± 0.11 | G -0.084 ± 0.032 | H 0.058 ± 0.081 | I -0.033 ± 0.081 | K 0.036 ± 0.07 | L -0.119 ± 0.042 | M -0.131 ± 0.075 | Q -0.017 ± 0.055 | R -0.038 ± 0.036 | T -0.034 ± 0.045 | V 0.039 ± 0.033 | W -0.059 ± 0.057 | Y -0.107 ± 0.079
P75: A 0.044 ± 0.066 | C -0.076 ± 0.15 | E -0.017 ± 0.074 | F -0.185 ± 0.17 | G 0.011 ± 0.049 | H -0.044 ± 0.088 | K -0.128 ± 0.15 | L 0.022 ± 0.07 | M -0.059 ± 0.097 | Q -0.086 ± 0.089 | R -0.044 ± 0.053 | S -0.067 ± 0.071 | W -0.183 ± 0.12

Variants of: B2
Assay: as above
Conditions: Bacillus caldolyticus

Abundance fitness, by site and new letter:
M1: A -0.046 ± 0.047 | C -0.102 ± 0.1 | D -0.086 ± 0.085 | E 0.008 ± 0.053 | F -0.025 ± 0.065 | G -0.064 ± 0.05 | H 0.016 ± 0.18 | I -0.006 ± 0.075 | K -0.1 ± 0.069 | L -0.044 ± 0.044 | Q -0.021 ± 0.2 | R -0.096 ± 0.047 | S -0.049 ± 0.049 | T -0.03 ± 0.057 | W -0.086 ± 0.072 | Y 0.027 ± 0.15
Q2: A -0.003 ± 0.046 | C 0.027 ± 0.061 | D -0.036 ± 0.073 | E 0.011 ± 0.067 | F 0.048 ± 0.069 | G -0.043 ± 0.039 | H 0.027 ± 0.083 | I 0.028 ± 0.078 | M 0.051 ± 0.066 | N -0.026 ± 0.12 | P -0.206 ± 0.038 | R -0.006 ± 0.038 | S -0.034 ± 0.035 | T 0.029 ± 0.056 | V 0.018 ± 0.039 | W 0.001 ± 0.051 | Y 0.003 ± 0.051
R3: A -0.032 ± 0.034 | C -0.076 ± 0.059 | D -0.023 ± 0.069 | E -0.019 ± 0.041 | F -0.003 ± 0.062 | G -0.004 ± 0.031 | I -0.025 ± 0.081 | K -0.046 ± 0.055 | M 0.019 ± 0.051 | N -0.061 ± 0.067 | Q -0.021 ± 0.041 | S -0.039 ± 0.031 | T -0.024 ± 0.059
